Experimental data published in PMC6224480, “Insights into Kinesin-1 Activation from the Crystal Structure of KLC2 Bound to JIP3” (Structure(London, England:1993), 2018).

Columns and labels:
CD spectroscopy = format: physicochemical; settings: 20°C, 20 mM potassium phosphate pH 7.5, 0.5 mM DTT
Method: All CD spectra were recorded on a Chirascan CD spectrometer (Applied Photophysics) in quartz cuvettes with a 0.1 cm path length. Data were recorded at 20°C between 260 - 180 nm in 1 nm increments and a 2 nm bandwidth over an average of two scans. The KLC2^TPR-myc and Trp-JIP3^LZ proteins were dialysed extensively into 20 mM potassium phosphate pH 7.5, 0.5 mM DTT. Spectra were collected from KLC2^TPR-myc samples at concentrations of 0.29, 0.14 and 0.086 mg/ml. Trp-JIP3^LZ spectra were collected at 0.15, 0.074 and 0.044 mg/ml. One spectrum was recorded for each sample at each concentration and background-corrected by subtraction of a buffer-only spectrum. Corrected spectra were converted to units of mean residue ellipticity and deconvolved using the Dichroweb server ([Whitmore and Wallace, 2008]). KLC2^TPR-myc and Trp-JIP3^LZ spectra were analysed using the SELCON3 and CONTIN algorithms, respectively, using reference dataset set 4 ([Sreerama et al., 1999], [van Stokkum et al., 1990]). For each protein, the mean percentage of each secondary structure type, and the corresponding standard deviation, was calculated from the values obtained from the three concentrations. The secondary structure content for KLC2^TPR-myc and Trp-JIP3^LZ were calculated using the KLC2^TPR:JIP3^LZ crystal structure using the STRIDE server (http://webclu.bio.wzw.tum.de/cgi-bin/stride/stridecgi.py) ([Frishman and Argos, 1995]).

[1] = system: KLC2^TPR-myc Arg^312Glu (R312E); experiment: ITC of Trp-JIP3^LZ into R312E KLC2^TPR-myc; format: binding, murine
Description: The KLC2^TPR construct used in this work comprised murine KLC2 residues 191-480, which is similar to those used in previous studies ([Nguyen et al., 2017], [Zhu et al., 2012]) but with a slightly longer N-terminal region to include residues 191-194, which are very highly conserved in Bilaterian KLCs. To construct the pMW-His6-SUMO-KLC2^TPR vector, the sequence encoding KLC2^TPR (residues 191-480) was amplified by PCR from a murine template ([Dodding et al., 2011]) and cloned into the NotI/EcoRI sites of pMW his-SUMO. […]
The Trp-JIP3^LZ protein used for CD and ITC experiments was prepared as described above for the JIP3^LZ, with the following modifications. […] The Trp-JIP3^LZ and KLC2^TPR-myc samples used in the fluorescence anisotropy-based binding competition assays were prepared as for those used in the CD and ITC studies, but the final size-exclusion step was performed in 100 mM NaCl, 25 mM HEPES, 5mM MgCl2, 1 mM TCEP (final pH 7.5).
(§1) To study binding of the Trp-JIP3^LZ and FITC-CSTN-WD2 peptide to wild-type and mutant KLC2^TPR-myc, the recombinant proteins were prepared by size exclusion chromatography in 0.1 M NaCl, 25 mM HEPES, 1 mM TCEP, final pH 7.5. […] The peptide concentration was determined by measuring the absorbance at 483 nm and using a molar extinction coefficient of 68,000 M^-1cm^-1. […] The resulting isotherms were analysed in SEDPHAT. […]

[2] = system: wild-type and mutant KLC2^TPR-myc; experiment: ITC with wild-type and/or TPR1-mutant KLC2^TPR-myc (collective statements); format: binding, murine; settings: all three mutations in TPR1 of KLC2^TPR-myc; ITC
Method: The Trp-JIP3^LZ protein used for CD and ITC experiments was prepared as described above for the JIP3^LZ, with the following modifications. Following 3C cleavage, contaminating GST3C was removed by incubation of the eluate with fresh, pre-equilibrated glutathione sepharose 4B resin for 2 hours at room temperature. The Trp-JIP3^LZ was then further purified by size exclusion chromatography using a Superdex 75 16/600 column equilibrated in 100 mM NaCl, 25 mM HEPES, 1 mM TCEP (final pH 7.5). Wild-type/mutant KLC2^TPR-myc samples used for CD and ITC experiments were prepared as described above the KLC2^TPR used in crystallographic studies. The Trp-JIP3^LZ and KLC2^TPR-myc samples used in the fluorescence anisotropy-based binding competition assays were prepared as for those used in the CD and ITC studies, but the final size-exclusion step was performed in 100 mM NaCl, 25 mM HEPES, 5mM MgCl2, 1 mM TCEP (final pH 7.5).
as §1

KLC2^TPR-myc = biological target: T1, KLC2^TPR-myc (Mus musculus, UniProt O88448); experiment: Fluorescence anisotropy-based binding competition against FITC-LFP motif peptide; parameters: species or system murine; settings: FITC-LFP peptide 300 nM, KLC2^TPR-myc 21 μM, Trp-JIP3^LZ two independent experiments, CSTN-WD1 one experiment
T1 construct: comprised murine KLC2 residues 191-480; His6-SUMO (N, cleaved yes); made in house; host or cells: E. coli BL21(DE3) Rosetta
Description: Kinesin-1 activation by JIP3 requires JIP3^LZ binding to KLC^TPR ([Watt et al., 2015]). How does JIP3^LZ binding to the KLC^TPR relieve KLC regulation of the kinesin-1 molecule? Tryptophan-acidic cargoes activate kinesin-1 by releasing the KLC LFP motif from the KLC^TPR ([Yip et al., 2016]). […] We therefore wondered whether JIP3^LZ binding to the KLC2^TPR allosterically regulates interactions between KLC2^TPR and the LFP motif. We investigated this using an in vitro, fluorescence anisotropy-based binding competition assay with purified proteins and peptides ([Yip et al., 2016]). […] Thus, JIP3 activates kinesin-1 by a different mechanism to tryptophan-acidic cargoes.
The binding affinity between the FITC-labelled LFP-motif peptide and the KLC2^TPR-myc was measured essentially as described previously ([Yip et al., 2016]). FITC-labelled LFP motif peptide (300 nM) was incubated with 2-fold dilutions of KLC2^TPR-myc in assay buffer (0.1 M NaCl, 25 mM HEPES, 5 mM MgCl2, 1 mM TCEP, final pH 7.5) in triplicate in 384-well plates, for 1 hour at room temperature. Fluorescence measurements were recorded on a TecanSpark plate reader at excitation and emission wavelengths of 488 nm and 535 nm respectively. Fluorescence anisotropy values were calculated at each KLC2^TPR-myc concentration and the data were fitted with a fixed-slope dose response curve in Prism (GraphPad). […]

T1 sequence (O88448 191-480): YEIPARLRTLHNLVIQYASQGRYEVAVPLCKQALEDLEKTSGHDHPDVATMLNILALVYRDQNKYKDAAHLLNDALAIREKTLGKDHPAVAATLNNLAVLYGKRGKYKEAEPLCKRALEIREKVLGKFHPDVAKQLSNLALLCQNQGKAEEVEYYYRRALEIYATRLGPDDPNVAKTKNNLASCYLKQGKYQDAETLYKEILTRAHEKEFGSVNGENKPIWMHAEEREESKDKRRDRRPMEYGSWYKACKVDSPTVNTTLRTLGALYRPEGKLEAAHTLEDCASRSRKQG

B1: Trp-JIP3^LZ: JIP3^LZ construct N-terminally fused to a tryptophan residue (protein)
chain: WMGKEVGNLLLENSQLLETKNALNVVKNDLIAKVDQLSGEQEVLKGELEAAKQAKVKLENRIKELEEELKRV
modifications: left off: GST, N-terminal, cleaved
notes: JIP3^LZ construct N-terminally fused to a tryptophan residue
**Q.** Which results are given for B1?
**A.** mean α-helical content (CD spectroscopy; CONTIN deconvolution, mean and SD from three concentrations (0.15, 0.074, 0.044 mg/ml)): 59% ± 3%; ratio of ellipticities at 222 and 208 nm (CD spectroscopy; n = 3): 0.88 ± 0.01; binding to Arg^312Glu mutant [1]: retained the ability to bind; effect of the three TPR1 mutations on binding [2]: completely abrogated binding; effect on binding of KLC2^TPR-myc to FITC-labeled LFP motif peptide (KLC2^TPR-myc): no effect
